“And” between values parts separate entries of the source, which are not always exact repeats. Equal entries are not always repeated.
Molecular target: the molecule itself
Test: native gel or EMSA; non-denaturing PFO-PAGE (6% gels, 4% PFO) with anti-His Western blot of Sf9 membranes, untreated (Total) or solubilised in 1% (w/v) detergent (DDM, beta-OG, TX-100, FC-12, C12E8, LDAO) in TBS, 1 h on ice

Protein | stoichiometry N
Dictyostelium discoideum P2XA-(His)6 (receptor, UniProt Q86JM7 1-378, looked up, P2XA receptor of Dictyostelium discoideum, full-length wild type, from a human codon-optimised cDNA; N-glycosylated (insect-cell type); also called DdP2XA; DdP2XA-(His)6; source: Sf9 cells, baculovirus-infected; in detergent-solubilised membranes, and purified (Ni-sepharose, preparative PFO-PAGE)) MGFSFDWDDIFQYSTVKIVRIRDRRLGILHLSFLVGIVAYIVVYSAIIKKGYLFTEVPIGSVRTSLKGPNTFASNLTYCSNQQHNGSTYPFTPLECNYWDEQLALFPVGQDSTFTCTTRVRLSKQEANCNFTDPTCKFVDEPGSAKNIYIADIESFTILIDHTMYASSSGSQFNAVDLHGYILNQDGDEVQIDANGTSIGVSGKPDIMTIGQLLSFGGVSLDQASPVDSNVSIRYDGVVLFVFITYSNTYTYSTSDFKYVYSVQQIANTIYDVPETIILESIHSRLLYKRHGIRVIFIQTGTIGSFHFQTLLLTLVSGLGLLAVATTVVDQLAIRLLPQRKSYSSLKFQVTESMSNPMKKRITTDEGEDVLYTRIEGL | 3
human P2X4-(His)10 (receptor, UniProt Q99571 1-388, looked up, human P2X4 receptor, full-length wild type; N-glycosylated (insect-cell type); also called hP2X4; source: Sf9 cells, baculovirus-infected; in membranes, untreated or detergent-solubilised) MAGCCAALAAFLFEYDTPRIVLIRSRKVGLMNRAVQLLILAYVIGWVFVWEKGYQETDSVVSSVTTKVKGVAVTNTSKLGFRIWDVADYVIPAQEENSLFVMTNVILTMNQTQGLCPEIPDATTVCKSDASCTAGSAGTHSNGVSTGRCVAFNGSVKTCEVAAWCPVEDDTHVPQPAFLKAAENFTLLVKNNIWYPKFNFSKRNILPNITTTYLKSCIYDAKTDPFCPIFRLGKIVENAGHSFQDMAVEGGIMGIQVNWDCNLDRAASLCLPRYSFRRLDTRDVEHNVSPGYNFRFAKYYRDLAGNEQRTLIKAYGIRFDIIVFGKAGKFDIIPTMINIGSGLALLGMATVLCDIIVLYCMKKRLYYREKKYKYVEDYEQGLASELDQ | 2 and 3

Source: paper PMC3199733, “Expression, purification, electron microscopy, N-glycosylation mutagenesis and molecular modeling of human P2X4 and Dictyostelium discoideum P2XA” (Biochimica et Biophysica Acta, 2011)
